Results on nine molecules are retold here after US20210261648A1 (published 2021).

As usually defined, the Kd is the free concentration of one partner at which half of the binding sites on the other are occupied at equilibrium, for simple one-to-one binding.

T1: FcγRIIb (human, UniProt P31994 43-217)
T1 construct: extracellular domain; also called FcgRIIb; CD32B
T1 sequence (looked up): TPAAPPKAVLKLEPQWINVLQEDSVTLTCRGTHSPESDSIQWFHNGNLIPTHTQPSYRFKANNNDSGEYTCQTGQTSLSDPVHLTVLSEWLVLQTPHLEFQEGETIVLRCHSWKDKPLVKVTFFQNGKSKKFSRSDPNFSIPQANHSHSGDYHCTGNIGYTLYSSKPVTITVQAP

T2: FcγRIIa type R (human, UniProt P12318 34-217)
T2 chain: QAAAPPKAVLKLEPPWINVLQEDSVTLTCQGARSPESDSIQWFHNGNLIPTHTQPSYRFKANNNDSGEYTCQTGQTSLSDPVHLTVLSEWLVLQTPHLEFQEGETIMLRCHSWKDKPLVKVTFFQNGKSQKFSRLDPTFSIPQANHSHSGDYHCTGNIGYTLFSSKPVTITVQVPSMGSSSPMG

B1: IL6R-BP494/IL6R-L (antibody, human IgG1, kappa)
heavy: QVQLQESGPGLVKPSETLSLTCAVSGHSISHDHAWSWVRQPPGEGLEWIGFISYSGITNYNPSLQGRVTISRDNSKNTLYLQMNSLRAEDTAVYYCARSLARTTAMDYWGEGTLVTVSSASTKGPSVFPLAPSSKSTSGGTAALGCLVKDYFPEPVTVSWNSGALTSGVHTFPAVLQSSGLYSLSSVVTVPSSSLGTQTYICNVNHKPSNTKVDKKVEPKSCDKTHTCPPCPAPELLGDDSVFLFPPKPKDTLMISRTPEVTCVVVDVAEEDGEVKFNWYVDGVEVHNAKTKPREEQDNSTYRVVSVLTVLHQDWLNGKEYKCKVSNKALPRPIEKTISKAKGQPREPQVYTLPPSRDELTKNQVSLTCLVKGFYPSDIAVEWESNGQPENNYKTTPPVLDSDGSFFLYSKLTVDKSRWQQGNVFSCSVMHEALHNHYTQESLSLSP
light: not shown
notes: Alterations in EU numbering, introduced into IL6R-B3
B2: IL6R-BP509/IL6R-L (antibody, human IgG1, kappa)
heavy: B1 heavy with E235D, V266I, E274D, R332A
light: not shown
notes: as for B1
B3: IL6R-BP508/IL6R-L (antibody, human IgG1, kappa)
heavy: B1 heavy with E235D, V266I, E274P, R332A
light: not shown
notes: as for B1
B4: IL6R-BP495/IL6R-L (antibody, human IgG1, kappa)
heavy: B1 heavy with A269G
light: not shown
notes: as for B1
B5: IL6R-BP501/IL6R-L (antibody, human IgG1, kappa)
heavy: B1 heavy with V266I, D298Y, R332A
light: not shown
notes: as for B1
B6: IL6R-BP500/IL6R-L (antibody, human IgG1, kappa)
heavy: B1 heavy with V266I, R332A
light: not shown
notes: as for B1
B7: IL6R-BP549/IL6R-L (antibody, human IgG1, kappa)
heavy: B1 heavy with A269G, D298Y
light: not shown
notes: as for B1
B8: IL6R-BP504/IL6R-L (antibody, human IgG1, kappa)
heavy: B1 heavy with E235D, V266I, E274P, D298Y, R332A
light: not shown
notes: as for B1
B9: IL6R-BP505/IL6R-L (antibody, human IgG1, kappa)
heavy: B1 heavy with E235D, V266I, E274D, D298Y, R332A
light: not shown
notes: as for B1

Numbering of substitutions follows the chain as printed.

One experiment addresses T1, FcγRIIb. The experiment in a line: SPR (Biacore); parent = IL6R-B3/IL6R-L. For orientation: SPR reads the build-up and loss of mass on a sensor chip optically.
Turning to B1, the “KD(IIb) of the parent polypeptide/KD(IIb) of the altered polypeptide” value (from here on “KD(IIb)”) worked out at 471 fold.
With B2, the “KD(IIb)” value amounted to 174 fold.
On the same count and under the same terms, with B3 the figure was 149 fold; with B4, 321 fold; with B5, 123 fold.
For B6, the “KD(IIb)” value amounted to 128 fold.
With B7, the “KD(IIb)” value came out at 196 fold.
For the molecule B8, the “KD(IIb)” value stood at 128 fold.
B9: the “KD(IIb)” value was determined as 145 fold.

The next experiment addresses T2, FcγRIIa type R. In words: SPR (Biacore); parent = IL6R-B3/IL6R-L.
For B1, the “KD(IIaR) of the parent polypeptide/KD(IIaR) of the altered polypeptide” value (“KD(IIaR)” below) came to 4.3 fold.
As for B2, the “KD(IIaR)” value turned out to be 2.1 fold.
In the case of B3, the “KD(IIaR)” value turned out to be 2 fold.
The same measure, in the same setting: with B4 the figure was 2.2 fold; with B5, 1.7 fold; with B6, 1.5 fold.
B7: the “KD(IIaR)” value is 1.9 fold.
On the same count and under the same terms, with B8 the figure was 2.4 fold; with B9, 2.6 fold.

The target of another experiment is T3, FcγRIa (human, UniProt P12314 16-292).
T3 construct: Whole entry named; also called FcgRIa; CD64A
T3 sequence (P12314 16-292): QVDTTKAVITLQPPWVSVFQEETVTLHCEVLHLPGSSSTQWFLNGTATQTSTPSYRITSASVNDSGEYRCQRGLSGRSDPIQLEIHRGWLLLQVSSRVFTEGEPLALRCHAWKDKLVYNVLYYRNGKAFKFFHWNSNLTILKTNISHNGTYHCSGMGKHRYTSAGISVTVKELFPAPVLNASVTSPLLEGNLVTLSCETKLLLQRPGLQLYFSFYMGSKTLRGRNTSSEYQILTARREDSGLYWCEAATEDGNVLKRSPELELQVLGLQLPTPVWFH
In words: SPR (Biacore), captured antibody, soluble FcγR.
In the case of B1, the Kd was determined as 3.9 nM.
The molecule B2 displayed a Kd of 1.1 nM. This Kd is about 3.5-fold lower than that of the molecule before.
B3 returned a Kd of 1.4 nM.
On the same count and under the same terms, the result for B4 reads 8.3 nM; that for B5, 2.1 nM.
Regarding B6, the Kd came to 2.3 nM.
On the same count and under the same terms, the result for B7 reads 18 nM; that for B8, 1.4 nM; that for B9, 1.1 nM.

Another experiment addresses T1, FcγRIIb. In words: SPR (Biacore), captured antibody, soluble FcγR.
In the case of B1, the affinity, expressed as Kd, was 6.6 nM. This counts as single-digit nanomolar.
Still for that read-out and setting: with B2 the figure was 18 nM.
B3 gave a Kd of 21 nM.
Still for that read-out and setting: with B4 the figure was 9.7 nM.
On the same count and under the same terms, with B5 the figure was 25 nM; with B6, 24 nM; with B7, 16 nM.
Still for that read-out and setting: the result for B8 reads 24 nM.
Turning to B9, the Kd turned out to be 21 nM.

The next experiment deals with T2, FcγRIIa type R. In words: SPR (Biacore), captured antibody, soluble FcγR.
Regarding B1, the Kd turned out to be 250 nM. In other words, the sub-micromolar range.
With B2, the Kd was 520 nM.
Turning to B3, binding was characterised by a dissociation constant (Kd) of 540 nM.
On the same count and under the same terms, the result for B4 reads 490 nM.
Still for that read-out and setting: with B5 the figure was 630 nM.
Still for that read-out and setting: with B6 the figure was 720 nM; with B7, 570 nM; with B8, 450 nM.
With B9, binding was characterised by a dissociation constant (Kd) of 430 nM.
